Data on 1 molecule can be found in patent publication US11230579B2, “Method of treating BCL-2 over-expressing disorders using arts containing a BH3-like domain” (CARMEL-HAIFA UNIVERSITY ECONOMIC CORPORATION LTD., priority 2012, dated 2022).

The subject of experiment [1] is Bcl-2. Put plainly: IP with anti ARTS antibody in HeLa wt cells, Bcl-2. The class given is binding, human. The protocol: (§1) Co immunoprecipitation was performed as previously described (Gottfried et al., 2004). Briefly, 10 μg of anti-ARTS antibody or 2 μg of anti-Bcl-2 or anti-XIAP antibody were added to the protein lysate and the samples were left rotating overnight at 4° C. On the following day, agarose beads conjugated to protein A/G (Santa Cruz) were added for 4 h. Samples were centrifuged at 4000 rpm, 4° C. for 5 min and washed three times with PBS. Proteins were eluted from beads following 5 min of boiling in sample buffer and separated on 12.5% SDS-PAGE gel, followed by Western blot analysis.
(§2) Further, HeLa wt cells were treated with ABT-263 25 μM for 24 h. 750 μg of total proteins were subjected to Immunoprecipitation (IP) assay using monoclonal mouse anti ARTS Antibody (Ab). Western Blot analysis was performed using Bcl-2, Bcl-xL, ARTS and Actin antibodies. […] This binding is still seen after 24 hours of treatment with ABT-263. The decrease in binding may be the result of lower levels of Bcl-2 and Bcl-xL known to be strongly degraded after 24 hours of apoptosis.

The test system of experiment [2] is Bcl-2. Briefly: Functional-structural pull-down assay with anti Bcl2 antibody in transfected HeLa cells. To be noted: pull-down with Bcl-2 antibodies. The class given is binding, human. The protocol:
HeLa cells were transiently transfected with Full length ARTS plasmid and 128 amino acids N′ terminus deletion of ARTS plasmid, for 24 hrs. The cells were extracted using RIPA-SDS lysis buffer. Immunoprecipitation was done by incubation of lysates overnight with anti Bcl2 antibody (BD), followed by precipitation done with protein A/G beads (Santa Cruz). Western blot analysis was performed using monoclonal anti ARTS antibody directed against its unique C terminus (Sigma).
In order to identify the Bcl-2 binding domain in ARTS, the inventors examined whether deletion of different fragments of ARTS, namely, the N-terminal 128 amino-acid residues may have an effect. Therefore, pull-down experiments were performed in HeLa cells transfected with either the full length ARTS or a deletion mutant thereof.

For experiment [3], the system named is Bcl-2. Put plainly: Over-expression of ARTS in COS-7 cells, Bcl-2 levels by Western blot and densitometry. The class given is cell-based. Conditions: COS-7 cells, transient transfection. The source says:
For transient transfections jetPEI™ (Polyplus Transfection) and Transfectol (GeneChoice) reagents were used according to the manufacturers' instructions.
To determine whether ARTS promotes apoptosis by regulating the levels of Bcl-2, the inventors first over-expressed ARTS in COS-7 cells. More specifically, COS-7 cell were transiently transfected with ARTS, Bcl-2 or empty vector or co-transfected with both constructs.
Background: Immunoblotting shows a protein as a band on a membrane.

Experiment [4] relates to Bcl-2. Put plainly: Myc beads pull-down of ARTS and Bcl-2 in co-transfected COS-7 cells. In kind it is binding. Conditions: COS-7 cells co-transfected with Bcl-2 and ARTS. The protocol: (§3) COS-7 cells were co-transfected with different constructs as detailed herein. The cells were lysed in RIPA buffer (150 mM NaCl, 50 mM Tris-HCl (pH 8), 1% NP-40, 0.5% deoxycholate acid containing protease inhibitors (mini Complete, Roche)). The samples were left rotating overnight at 4° C. with the anti-Myc-beads (Santa Cruz). Samples were centrifuged at 4000 rpm, 4° C. for 5 min and washed four times in PBS. Proteins were eluted from beads following 5 min of boiling in sample buffer. Proteins were separate on 12.5% SDS-PAGE gel, followed by Western blot analysis.
The mechanism by which ARTS regulates Bcl-2 levels was further tested using a pull-down assay in COS-7 cells which were co-transfected with Bcl-2 and ARTS expression vectors. Pull-down assays were performed using agarose anti-myc beads followed by Western blot analysis using mouse anti-ARTS and anti-Bcl-2 antibodies.

Experiment [5] concerns the target T1, XIAP and Bcl-2 (Homo sapiens, UniProt P10415+P98170).
T1 construct: expressed in transfected cells; host or cells: COS-7
Put plainly: Pull-down of myc-XIAP in COS-7 cells co-transfected with ARTS, flag-Bcl-2 and myc-XIAP. The class given is binding. As to the method:
as §3
Further understanding and evaluation of the relative contribution of ARTS to the formation of a complex with Bcl-2 and XIAP was obtained by over-expressing ARTS, Bcl-2, and XIAP alone or all together in COS-7 cells, which contain relatively small amounts of endogenous ARTS.
FIGS. 5A and 5B show results of COS-7 cells (pull down and lysates) transiently co-transfected with combinations of ARTS, flag-Bcl-2, and myc-XIAP constructs. Pull-down of XIAP was performed using anti-myc beads, and the precipitate was subjected to western blot analyses. […] This weak binding was attributed to the presence of low endogenous levels of ARTS in these COS-7 cells resulting in almost no formation of the complex.

Experiment [6] relates to Bcl-2. Put plainly: Bimolecular Fluorescence Complementation (BiFC) with flow cytometry, ARTS and Bcl-2. Conditions: living cells, 30 minutes after apoptotic induction, data not shown. In kind it is binding, human. The source says:
(§4) The Bimolecular Fluorescence Complementation (BiFC) assay, provides a simple and direct way to visualize protein-protein interactions in real-time and in living cells. The method is based on formation of a fluorescent complex through the association of two fragments of a fluorescent protein, brought together by an interaction between proteins fused to the fragments. This method is especially attractive because the Green fluorescent protein (GFP) or Yellow fluorescent protein (YFP) chromophore forms spontaneously on protein folding in virtually every cell type tested (Kerppola, 2006).
(§5) Direct binding between [ARTS and Bcl-2] and [XIAP and Bcl-2] was examined using the BiFC system. […]
(§6) Transfection was performed using 200 ng of each plasmid together with 50 ng of pdsRED plasmid which served as control for transfection efficiency. […] Flow cytometry analyses of cell suspensions were performed using a fluorescence-activated cell sorter (FACSCantoII; BD Biosciences) equipped with an argon laser emitting at 488 nm. […] Results were analyzed using […] software (BD Biosciences). A ratio between YFP fluorescence and Red fluorescence was calculated for each time point.
(§7) To further investigate the binding relationships within this complex, the split-Venus, Bimolecular Fluorescence Complementation (BiFC) system was used. […]
For orientation: A flow cytometer gives signals particle by particle.

The test system of experiment [7] is Bcl-2 and XIAP. Briefly: Immunoprecipitation with anti-ARTS monoclonal antibody in HeLa, BT-549 and COS-7 cells. In kind it is binding. Conditions: BT-549 and 6-Myc-ARTS transfected COS-7 cells. The protocol: as §1
In experiment [8] the target is T2, XIAP (Homo sapiens, UniProt P98170). Conditions: in vitro and in vivo; cited from earlier work.
T2 sequence (P98170 whole entry): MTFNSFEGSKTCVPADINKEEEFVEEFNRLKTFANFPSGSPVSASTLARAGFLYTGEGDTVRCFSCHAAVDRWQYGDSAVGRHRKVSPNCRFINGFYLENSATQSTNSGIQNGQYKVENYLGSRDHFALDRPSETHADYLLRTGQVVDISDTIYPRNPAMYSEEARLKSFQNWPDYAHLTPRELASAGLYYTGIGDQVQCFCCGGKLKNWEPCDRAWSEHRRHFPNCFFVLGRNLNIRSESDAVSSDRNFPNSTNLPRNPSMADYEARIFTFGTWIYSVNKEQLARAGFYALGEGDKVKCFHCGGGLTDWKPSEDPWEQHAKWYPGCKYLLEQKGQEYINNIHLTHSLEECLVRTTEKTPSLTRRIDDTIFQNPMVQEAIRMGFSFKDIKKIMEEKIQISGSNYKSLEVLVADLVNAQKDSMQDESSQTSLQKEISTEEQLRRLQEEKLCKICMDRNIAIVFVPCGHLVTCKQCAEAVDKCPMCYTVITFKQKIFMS
Experiment [9] deals with Bcl-XL (Homo sapiens, UniProt Q07817). Briefly: IP with anti ARTS antibody in HeLa wt cells, Bcl-xL. The class given is binding. The arrangement: endogenous in cells; host or cells: HeLa wt cells. The protocol:
as §1, §2

Experiment [10] concerns the target T2, XIAP. Put plainly: Bimolecular Fluorescence Complementation (BiFC) with flow cytometry, ARTS and XIAP. In kind it is binding. To be noted: living cells, 30 minutes after apoptotic induction, data not shown. The arrangement: expressed in transfected cells; host or cells: HeLa.
Text: as §4, §5, §6, §7

T1 sequence (P98170 whole entry): as above
T1 sequence (P10415 whole entry): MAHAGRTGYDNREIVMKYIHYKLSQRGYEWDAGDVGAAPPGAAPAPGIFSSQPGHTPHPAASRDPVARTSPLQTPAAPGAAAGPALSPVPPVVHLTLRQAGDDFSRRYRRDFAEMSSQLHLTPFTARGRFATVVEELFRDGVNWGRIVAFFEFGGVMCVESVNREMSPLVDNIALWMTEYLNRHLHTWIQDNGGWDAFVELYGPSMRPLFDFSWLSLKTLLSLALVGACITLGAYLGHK
Sequence of Bcl-XL (Q07817 whole entry): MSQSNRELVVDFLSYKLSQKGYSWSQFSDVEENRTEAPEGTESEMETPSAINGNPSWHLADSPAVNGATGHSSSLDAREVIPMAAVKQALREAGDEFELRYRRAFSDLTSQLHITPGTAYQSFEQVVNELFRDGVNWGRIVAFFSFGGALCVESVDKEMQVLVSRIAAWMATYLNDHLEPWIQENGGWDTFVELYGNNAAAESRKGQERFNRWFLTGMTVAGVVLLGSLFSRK

B1: ARTS: septin-like mitochondrial protein; human ARTS of 274 amino acid residues, GenBank Accession No. AF176379 (protein, listed as Homo sapiens)
chain: MIKRFLEDTTDDGELSKFVKDFSGNASCHPPEAKTWASRPQVPEPRPQAPDLYDDDLEFRPPSRPQSSDNQQYFCAPAPLSPSARPRSPWGKLDPYDSSEDDKEYVGFATLPNQVHRKSVKKGFDFTLMVAGESGLGKSTLVNSLFLTDLYRDRKLLGAEERIMQTVEITKHAVDIEEKGVRLRLTIVDTPGFGDAVNNTECWKPVAEYIDQQFEQYFRDESGLNRKNIQDNRVHCCLYFISPFGHGYGPSLRLLAPPGAVKGTGQEHQGQGCH
For the molecule B1, the “binding to Bcl-2 in living cells” value in experiment [1] was “binds”. In experiment [2], the “binding to Bcl-2” value is “binds to Bcl-2”. For the same molecule, the “Bcl-2 levels on over expression” value in experiment [3] was “reduction in Bcl-2 levels”. For the same molecule, the “complex with Bcl-2” value in [4] is listed as “forms a complex with Bcl-2”. Further, in [5], the “ability of XIAP to bind to Bcl-2 on over-expression of ARTS” value is reported as “significantly increased”. The “binding to Bcl-2 (BiFC fluorescence)” value in experiment [6] was “Strong binding”. Also, in experiment [7], the “complex of ARTS, Bcl-2 and XIAP” value was “form a complex”. For the same molecule, in experiment [8], the “binding to XIAP” value is on record as “binds directly to XIAP”. Also, the “binding to Bcl-xL in living cells” value in experiment [9] is “binds”. Moreover, the “binding to XIAP (BiFC fluorescence)” value in experiment [10] was “Strong binding”.
